Here are results for ten compounds from paper PMC12669672, “Structural insights into selective and dual antagonism of EP2 and EP4 prostaglandin receptors” (The EMBO Journal, 2025).

Values joined by “and” are separate entries in the source; they are usually repeats but may differ in a detail not shown here. Equal entries are not always repeated.

Series [1] has as its system WT and mutant EP2 receptors. The experiment in a line: Cell-surface expression, FACS with anti-FLAG FITC antibody. Also noted: species or system human. The settings on record: single experiments 1st-3rd. The protocol:
Cell-surface expression levels of both wild-type and mutant receptors were assessed using a fluorescence-activated cell sorting (FACS) assay. Briefly described, AD293 cells expressing FLAG-tagged EP2 or EP4 receptors were collected 24 h post-transfection. These cells were then incubated with a mouse anti-FLAG FITC-conjugated antibody (Sigma) at a 1:200 dilution for 2 h at 4 °C in a dark environment. Subsequently, cells were washed with 100 µL of PBS. Surface expression levels were quantified by measuring the fluorescence intensity of FITC using a Guava® easyCyte flow cytometer. Data were normalized relative to the expression levels of the wild-type receptors. These experiments were conducted in triplicate, and the results were expressed as mean ± S.E.M.

For series [2], the target named is T1, EP2-D311A (Homo sapiens, UniProt P43116, D311A).
T1 construct: The full-length EP2 or EP4 was cloned into the pcDNA3.1 vector (Invitrogen), incorporating an N-terminal FLAG tag; expressed in transfected cells; host or cells: AD293
The experiment in a line: GloSensor cAMP assay, PGE2 induced cAMP signaling (activation). Format: cell-based. The protocol: (§1) The full-length EP2 or EP4 was cloned into the pcDNA3.1 vector (Invitrogen), incorporating an N-terminal FLAG tag. AD293 cells were seeded in six-well plates containing DMEM supplemented with 10% dialyzed FBS 1 day prior to transfection. Following overnight growth, cells were transfected with a 1:1 ratio of receptor construct and GloSensor22F cAMP biosensor (Promega) plasmids.
(§2) Twenty-four hours post-transfection, the cells were transferred to CO2-independent media containing 2% GloSensor cAMP Reagent (Promega) and distributed into 384-well assay plates at a density of 4000 cells per well in 10 μL. […] The plates were then incubated at 37 °C for an additional hour before luminescence measurements were taken using an EnVision plate reader.
(§3) Data analysis was performed using GraphPad Prism software v8.0.1. A nonlinear regression analysis, employing a sigmoidal dose–response model, was conducted to determine the Emax values and half-maximum inhibitory concentrations (IC50) for each compound tested.
On the technique in general: cAMP levels reflect the balance of adenylyl cyclase and phosphodiesterase activity.

In series [3] the target is T2, EP2-F273A (Homo sapiens, UniProt P43116, F273A).
T2 construct: The full-length EP2 or EP4 was cloned into the pcDNA3.1 vector (Invitrogen), incorporating an N-terminal FLAG tag; expressed in transfected cells; host or cells: AD293
Described as above. It counts as cell-based. The protocol: as §1, §2, §3

Series [4] addresses EP2 WT (Homo sapiens, UniProt P43116). The description is as above. Format: cell-based. On the set-up: The full-length EP2 or EP4 was cloned into the pcDNA3.1 vector (Invitrogen), incorporating an N-terminal FLAG tag; expressed in transfected cells; host or cells: AD293. The protocol:
as §1, §2, §3

The mark [5] stands for this setting: 1 h, PGE2 log([M]) -7, single experiments 1st-3rd, Fig. 2D, read-out: % cAMP activity (normalized to WT).
The mark [6] stands for this setting: single experiments 1st-3rd, Appendix Fig. S6A.

Chain of EP2 WT (P43116 whole entry): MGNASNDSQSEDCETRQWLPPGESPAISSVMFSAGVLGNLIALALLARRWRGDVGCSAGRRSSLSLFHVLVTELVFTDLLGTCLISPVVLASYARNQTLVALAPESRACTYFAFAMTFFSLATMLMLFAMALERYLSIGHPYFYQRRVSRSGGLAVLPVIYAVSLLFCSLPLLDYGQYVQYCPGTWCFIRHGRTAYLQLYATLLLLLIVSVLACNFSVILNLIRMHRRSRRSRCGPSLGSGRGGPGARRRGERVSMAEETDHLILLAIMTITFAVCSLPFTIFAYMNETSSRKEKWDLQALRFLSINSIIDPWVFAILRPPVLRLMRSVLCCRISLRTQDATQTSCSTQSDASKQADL
T1 sequence (P43116 whole entry D311A): as the sequence (P43116 whole entry) above, with D311A counted along it
T2 sequence (P43116 whole entry F273A): as the sequence (P43116 whole entry) above, with F273A counted along it

EP2 S308A: the “Surface expression ( 100% WT)” value in series [1] is 115.51% and 112.90% and 88.41%.

EP2 S305A: in series [1], the “Surface expression ( 100% WT)” value is 98.88% and 97.38% and 93.83%.

EP2 E23A: the “Surface expression ( 100% WT)” value in series [1] was 92.71% and 100.19% and 95.51%.

As for EP2 W186A, in series [1], the “Surface expression ( 100% WT)” value was 116.07% and 83.36% and 84.86%.

EP2 S28A: the “Surface expression ( 100% WT)” value in series [1] was 106.92% and 107.85% and 105.61%.

As to EP2 T82A, in series [1], the “Surface expression ( 100% WT)” value was 106.36% and 116.26% and 103.74%.

For EP2 S86A, in series [1], the “Surface expression ( 100% WT)” value was 89.91% and 90.65% and 110.47%.

EP2 WT: the “Surface expression ( 100% WT)” value in series [1] was 104.67% and 99.81% and 95.51%.

Usually Emax stands for the maximal effect, on the per cent scale that the assay sets. Take `CCCCC[C@H](O)/C=C/[C@H]1[C@H](O)CC(=O)[C@@H]1C/C=C\CCCC(=O)O` [PGE2, Prostaglandin E2]: the results for the remaining activity at 0.1 µM in series [2] (setting [5]) and in series [3] (setting [5]) were 91.9% and 32.4%, respectively. The Emax in series [2] (mean ± S.E.M., n = 3) came to 92.4 ± 3.9%; in series [3] (mean ± S.E.M., n = 3) it was 117 ± 2.9%; in series [4] (mean ± S.E.M., n = 3) it was 100 ± 3.9%. The “PGE2 cAMP activity (∆pIC50 from EP2 WT)” value in series [2] (setting [6]) was -1.566 and -1.416 and -1.487; in series [4] (setting [6]) it was 0.007 and -0.051 and 0.045. Further, the remaining activity at 1 µM in series [3] (1 h, PGE2 log([M]) -6, single experiments 1st-3rd, Fig. 2D, read-out: % cAMP activity (normalized to WT)) stood at 96.2%. In series [4] (1 h, PGE2 log([M]) -10, single experiments 1st-3rd, Fig. 2D, read-out: % cAMP activity (normalized to WT)), the remaining activity at 0.0001 µM was 16.5%.

EP2 M116A: the “Surface expression ( 100% WT)” value in series [1] was 99.63% and 105.23% and 100.56%.
